The conditions of the data set: Aspergillus oryzae (strain ATCC 42149 / RIB 40), 25 °C, Fluorescence, reversible: yes, whole UniProt chain shown.

Values joined by “and” are separate entries in the source; they are usually repeats but may differ in a detail not shown here. Identical values can stand only once.

B1: Guanyl-specific ribonuclease T1 wild type, P00651 (protein)
chain: MMYSKLLTLTTLLLPTALALPSLVERACDYTCGSNCYSSSDVSTAQAAGYQLHEDGETVGSNSYPHKYNNYEGFDFSVSSPYYEWPILSSGDVYSGGSPGADRVVFNENNQLAGVITHTGASGNNFVECT
As for B1, the denaturant m value (pH 2.92, GdnHCl, formate 30 mM) turned out to be 2.89 kcal/mol/M; the denaturant m value (pH 3.02, GdnHCl, formate 30 mM) was found to be 2.89 kcal/mol/M; the denaturant m value (pH 6.98, GdnHCl, MOPS 30 mM) was 3.09 kcal/mol/M and 2.58 kcal/mol/M; the denaturant m value (pH 9.89, GdnHCl, glycine 30 mM) was 3.27 kcal/mol/M; the denaturant m value (pH 9.91, GdnHCl, glycine 30 mM) is 2.58 kcal/mol/M. Besides, the “denaturant midpoint (higher = more stable)” value was 2.78 M (pH 2.92, GdnHCl, formate 30 mM); 1.8 M (pH 3.02, GdnHCl, formate 30 mM); 2.99 M and 2.98 M (pH 6.98, GdnHCl, MOPS 30 mM); 2.57 M (pH 9.89, GdnHCl, glycine 30 mM); 1.36 M (pH 9.91, GdnHCl, glycine 30 mM). Further, the unfolding free energy (pH 2.92, GdnHCl, formate 30 mM) was 8.04 kcal/mol; the unfolding free energy (pH 2.92, Urea, formate 30 mM) was 6.2 kcal/mol; the unfolding free energy (pH 3.02, GdnHCl, formate 30 mM) was 5.2 kcal/mol; the unfolding free energy (pH 3.02, Urea, formate 30 mM) is 5.2 kcal/mol; the unfolding free energy (pH 6.98, GdnHCl, MOPS 30 mM) was 9.24 kcal/mol and 7.7 kcal/mol; the unfolding free energy (pH 9.89, GdnHCl, glycine 30 mM) came to 8.4 kcal/mol. Also, the unfolding free energy stood at 8.6 kcal/mol (pH 9.89, Urea, glycine 30 mM) and 3.52 kcal/mol (pH 9.91, GdnHCl, glycine 30 mM).

The values above are taken from FireProtDB (doi:10.1021/bi00462a019).
